Measurements published in patent publication US12636342B2, “TARS derived from Akkermansia muciniphila or fragment thereof, and use thereof” (KOREA RESEARCH INSTITUTE OF BIOSCIENCE AND BIOTECHNOLOGY, priority 2020, dated 2026).
Entries after “also recorded” stand apart in the source; their conditions may differ.

Assays:
macrophages (F4/80+) = test: Identification of cells targeted by injected AmTARS (flow cytometry of PECs, colon immunofluorescence); assay type: in vivo, mouse; conditions: Mac2 immunofluorescence, His-tagged AmTARS 0.2 mg kg-1, 1 day
Method: To identify the cells targeted by AmTARS, mice with injected i.p. with fluorescently labeled AmTARS, and fluorescence-positive cells in peritoneal exudate cells (PECs), were analyzed by flow cytometry. […] Next, we used a Mac-2 immunofluorescence antibody to test whether i.p.-injected AmTARS targets intestinal macrophages. Intense expression of Mac2 was detected in colonic epithelium, as well as in macrophages located in the lamina propria.

[1] = test system: mouse model of dextran sulfate sodium (DSS)-induced colitis; test: DSS-induced colitis (inflammatory bowel disease) mouse model, intraperitoneal administration; assay type: in vivo; conditions: for distribution of B cells in the colon: normal mice
Method: We evaluated the anti-inflammatory function of AmTARS in a mouse model of dextran sulfate sodium (DSS)-induced colitis. First, we assessed dose-dependent responses (i.e., changes in body weight and colon length) to intraperitoneal (i.p.) administration of AmTARS (0.05-0.4 mg/kg) once every other day for 10 days (FIG. 10A).
The disease activity score was calculated by adding up scores ranging from 0 to 4 points for each item of bloody stool, diarrhea, and weight loss, and the epithelial damage score was calculated by assigning 0 to 4 points according to the degree of colon tissue damage.
Next, to measure IgA, mouse feces were collected and diluted in PBS containing a protein inhibitor, and then a supernatant with impurities removed was obtained, and 100 μL was placed in each well of a 96-well plate to perform protein coating at 4° C. for 2 h. The plate was washed three times with a washing solution (50 mM Tris, 0.2% in PBS) and then incubated with 100 μL of blocking solution at room temperature for 1-2 h, followed by washing. HRP conjugated IgA antibody (1:30000) was added and then incubated at room temperature for 1 h, followed by washing. Thereafter, 100 μL of a substrate solution was added, followed by incubation for 30 min, and then 50 μL of a stop solution was added, followed by measurement at 405-450 nm by an ELISA reader. […]

human macrophages (THP1) = test: ELISA of immune cytokine secretion in LPS-treated THP1 (inflammatory environment); assay type: cell-based; conditions: THP1, LPS-induced inflammation, 0.1, 0.2, 0.5 μM, 24 h
Method: To determine whether AmTARS affects immune cytokine secretion when cellular inflammation was induced, mouse bone marrow-derived macrophages BMDMs as mouse-derived immune cells and human macrophages THP1 as human-derived immune cells were cultured by way of the same method as in Example 2.
Specifically, the cultured BMDMs and THP1 were treated with lipopolysaccharide (LPS) to induce an inflammatory response and were simultaneously treated with AmTARS at 0.1 μM, 0.2 μM, and 0.5 μM for 24 h to obtain cell cultures. The obtained cell cultures were analyzed for immune cytokine secretion by way of the same method as in Example 2.

[2] = test system: mouse bone marrow-derived macrophages (BMDMs); test: ELISA of immune cytokine secretion in BMDMs under normal conditions; assay type: cell-based; conditions: normal (non-inflammatory) conditions, 24 h
Procedure, shortened: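 Mouse BMDMs from femur and tibia were cultured in DMEM with 10% FBS. Cells were treated with AmTARS at 0.1, 0.2 or 0.5 μM for 24 h. Cell-free supernatants were assayed by ELISA for mouse IL-6, IL-10 and TNF-α.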

[3] = Aminoacylation reaction (malachite green phosphate assay); assay type: biochemical; conditions: L-threonine, ATP, 30 min, free Pi at 620 nm
Method: TARS is an […] involved in protein synthesis, and the domain and site involved in its function are well known. The constructed deletion mutants were confirmed to have deletions of parts irrelevant to the function, but the aminoacylation reaction experiment was conducted to determine whether the deletion mutants performed the intrinsic functions thereof appropriately.
Specifically, a 2× reaction solution (100 mM Tris-HCl (pH 7.5), 20 mM MgCl2, 200 mM NaCl, 200 mM KCl, 2 mM DTT, 500 μM ATP, and 5 mM L-threonine) was prepared, and 25 μL of a reaction solution, 20 μL of distilled water, and 5 μL of protein were added to make a final 50 μL volume, followed by incubation for 30 min. Thereafter, a reaction was conducted using a malachite green phosphate assay kit (Bioassay Systems) for 30 min, and the free monophosphate group (Pi) was measured at a wavelength of 620 nm.

[4] = DSS-induced colitis mice, i.p., AmTARS 0.2 mg/kg
[5] = DSS-induced colitis mice, particularly proximal colon, versus control mice
[6] = i.p. 0.05-0.4 mg/kg once every other day for 10 days
[7] = inflammatory bowel disease mouse model
[8] = normal mice (control of B cell-deficient experiment)

B1: Akkermansia muciniphila-derived threonyl-tRNA synthetase (TARS) (protein)
chain: MSEHKERKTLEERQQMSDLERLRHSCAHVLATAICRLWPDAQLAGGPAVDNGFYYDVELDHRISTEDFERIEEEMKKVVKENQVFQKEVISRADAMKMAESGELGALGPRSEPSRFKIDLLNDIPEDEEISLYRNGDFTDLCAGPHVGRTGNCKAFKIMSVASAFYKGDKNRPMLQRIYGTCFPNRTQLDEHLERLEEARRRDHRKLGRELGLFCIDESVGQGLILWKPKGALIRRSLQDFITEELDKLGYSQVYTPNIGKLDLYRTSGHFPYYQESQYAPIPERDAMEKLSQEGASCAELFNGLATGTIEGYMLKPMNCPHHIKIYANDAHSYRDLPVRLAEFGTVYRWEQSGELGGMTRVRGFTQDDAHIFCTPDQLAGEIRQCLGIVKTIFGTLGMTDYRVRLSMRDPESDKYVGSPENWDKAEQALREAAEWLGADYSEEAGEAAFYGPKIDFIVRDAIGREWQLGTVQVDYNLPERFDLHYTGADNKPHRPVMVHRAPFGSMERFTGLLIEHFEGKFPTWLSPEQVRVLPISDKVTDVAAAHRTALAARGVRVTVDETPDKIGAKIRNARLDRVPYMLVLGQREAEDGTVSVRHRDKGDLGAMPFEQFADLVAREIAERHISPVI
modifications: Akkermansia muciniphila TARS
co-localization of administered AmTARS (His) in the colon (macrophages (F4/80+)): co-localized mainly with macrophages in the lamina propria
therapeutic effects on colitis pathology ([1]; AmTARS 0.2 mg kg-1 versus mIL-10 0.02 mg kg-1): comparable with those of IL-10
IL-10-positive macrophage (CD11b+F4/80+IL-10+) numbers within colonic cells ([1]; DSS-induced colitis mice): restored
IL-10 levels in serum ([1]; DSS-induced colitis mice): increased
body weight loss [1, 4]: ameliorated
colon shortening / shortening of the intestine [1, 4]: ameliorated
disease activity scores [1, 4]: ameliorated
disruption of the epithelial lining [1, 5]: significantly lower
epithelial damage score [1, 5]: significantly lower
colitis-induced infiltration of inflammatory monocytes (CD11b+F4/80−) ([1]; colon cells, DSS-induced colitis mice): significantly suppressed
body weight loss ([1]; i.p. 0.4 mg/kg, up to 7 days): significantly attenuated
body weight loss, dose response [1, 6]: attenuated body weight loss and colon shortening in a dose-dependent manner
colon shortening, dose response [1, 6]: attenuated body weight loss and colon shortening in a dose-dependent manner
secretion of the cytokine IL-10 in the mouse plasma [1, 7]: increased the secretion
distribution of B cells in the colon [1, 7]: increase in B cells
distribution of B cells in the colon ([1]; inflammatory bowel disease mouse model, listed as TARS): significantly increased
amount of IgA increased due to an inflammatory response ([1]; mouse feces, ELISA): reduced the amount of IgA
colon tissue damage due to inflammatory bowel disease [1, 8]: alleviated
intestine length reduction due to inflammatory bowel disease [1, 8]: alleviated
secretion of IL-6 (human macrophages (THP1)): reduced in a dose-dependent manner
secretion of IL-10 (human macrophages (THP1)): increased in a dose-dependent manner
secretion of TNF-α (human macrophages (THP1)): reduced in a dose-dependent manner
secretion/production of IL-6 [2]: not secreted; also recorded: no effect
secretion/production of IL-10 [2]: increased in a dose-dependent manner; also recorded: significant increase; also recorded: induced production; also recorded: specific to AmTARS
secretion/production of TNF-α [2]: not secreted; also recorded: no effect
aminoacylation reaction / enzymatic activity [3]: an aminoacylation reaction was shown
